What follows are sequences tested against EPHB2 (UniProt P29323) (assay: phosphorylation enrichment, bacterial display (enrichment ratio); higher = better substrate or ligand; peptides without Tyr show the background).
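Also: 11-residue human phosphosite peptides and single-mutation variants displayed on the E. coli surface, counted by deep sequencing, each peptide's frequency after selection divided by its frequency in the unselected input library; frequency after pTyr selection over input frequency; kinase dosed for 20-30% of maximal phosphorylation in three min.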

Sequence of EPHB2 (P29323 whole entry, looked up): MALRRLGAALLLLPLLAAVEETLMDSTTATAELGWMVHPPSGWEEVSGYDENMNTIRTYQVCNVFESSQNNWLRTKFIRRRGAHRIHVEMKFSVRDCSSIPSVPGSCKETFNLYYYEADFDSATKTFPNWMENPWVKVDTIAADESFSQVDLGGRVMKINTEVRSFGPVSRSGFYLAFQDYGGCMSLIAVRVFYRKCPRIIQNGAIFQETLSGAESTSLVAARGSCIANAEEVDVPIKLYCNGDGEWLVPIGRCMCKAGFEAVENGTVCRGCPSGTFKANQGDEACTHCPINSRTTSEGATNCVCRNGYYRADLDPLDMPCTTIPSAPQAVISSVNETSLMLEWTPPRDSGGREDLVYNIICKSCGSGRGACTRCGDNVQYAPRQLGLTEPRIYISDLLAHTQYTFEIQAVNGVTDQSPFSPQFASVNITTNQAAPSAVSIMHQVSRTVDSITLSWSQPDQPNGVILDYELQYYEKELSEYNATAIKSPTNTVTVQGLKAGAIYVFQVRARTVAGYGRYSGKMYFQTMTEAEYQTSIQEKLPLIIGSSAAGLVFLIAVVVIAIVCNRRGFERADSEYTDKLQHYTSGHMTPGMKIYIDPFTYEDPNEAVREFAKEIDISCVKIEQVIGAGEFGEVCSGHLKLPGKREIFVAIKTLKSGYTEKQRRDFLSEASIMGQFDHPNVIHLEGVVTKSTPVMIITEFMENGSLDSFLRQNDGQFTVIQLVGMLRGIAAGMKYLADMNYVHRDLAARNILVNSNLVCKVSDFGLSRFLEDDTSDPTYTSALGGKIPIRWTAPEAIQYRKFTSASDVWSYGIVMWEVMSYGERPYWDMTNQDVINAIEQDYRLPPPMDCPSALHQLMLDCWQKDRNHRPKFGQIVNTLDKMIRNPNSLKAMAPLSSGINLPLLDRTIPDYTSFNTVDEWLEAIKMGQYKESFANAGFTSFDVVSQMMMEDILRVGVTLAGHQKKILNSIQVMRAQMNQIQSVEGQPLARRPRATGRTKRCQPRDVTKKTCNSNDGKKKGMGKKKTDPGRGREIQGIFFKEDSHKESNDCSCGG

Sequence | phosphorylation enrichment
PGQRVYVVAES [SHH_Y316_R321S] | 0.507
PVDVAYRHGFF [PLEC_Y2967_R2969H_YF] | 0.268
IGEGTYRTVFK [CDK5_Y15_G16R] | 0.432
RNVFFYSFLLK [PTEN_Y178_Y174N_YF] | 0.738
SLQFEYVHFGG [CDC14A_Y591_S589F_YF] | 0.682
ILIFHYAKGQP [MPZ_Y82_S78L] | 0.705
HISGVYKLPPD [ANGPTL7_Y145_R140H] | 0.6
KGRAGYTTVAV [RET_Y752] | 0.265
ATARPYRPYII [LRP5_Y1528] | 0.362
PSGPAYRGAVP [ASAH1_Y43_T42A] | 0.431
ARGMEYLASKK [FGFR1_Y613] | 0.367
RKETFYILSCR [GUCY2C_Y681_T682I] | 0.474
RLRKYHLGKYL [KLB_Y906_Y906H] | 0.399
FLTQHYDAEPQ [ANG_Y38_K41E] | 0.554
TEQDPYNNIVH [MMUT_Y364_R369H] | 0.679
YSGDCYRIQGR [DDR2_Y741_Y740C] | 0.514
LKEIRYPPFTD [ALDH3B2_Y362_H361R_YF] | 0.731

Sequence | phosphorylation enrichment
DQIDTYELSGG [DNM1_Y354] | 0.735
NHFKIYNLCAE [PTEN_Y68_YF] | 0.516
WQQQSYLDYGI [CTNNB1_Y30_S33Y] | 1.07
GLSAPYVKIHL [SYT2_Y309_D307A] | 0.423
KIVQDYLEKFY [MMP8_Y36_T32I] | 0.735
GVRLFYRVRES [RB1_Y454_M457R_YF] | 0.529
KVGRVYLFLQP [ITGA2B_Y360_E355K] | 0.522
NRVEIYEKTVE [CYFIP1_Y108] | 0.654
VPLLEYFRDIF [CDAN1_Y712_YF] | 0.715
DDHFTYSRYPW [LY75_Y888] | 7.92
LVSCTYQLARG [FGFR2_Y608] | 0.62
IHFAIYLLKFS [ARMC9_Y107_YF] | 0.457
PPSLSYLSFEG [EXOSC3_Y143_A139P] | 0.448
LNARHYGGLTG [PGAM2_Y92_E89A] | 0.3
KVNKIYHPDFI [LIG3_Y767_Y768H] | 0.417
QSPQLYKQMCI [DARS1_Y253] | 0.559

The sequences below were run against FGFR1 (UniProt P11362) in the same assay as above.
Sequence of FGFR1 (P11362 whole entry, looked up): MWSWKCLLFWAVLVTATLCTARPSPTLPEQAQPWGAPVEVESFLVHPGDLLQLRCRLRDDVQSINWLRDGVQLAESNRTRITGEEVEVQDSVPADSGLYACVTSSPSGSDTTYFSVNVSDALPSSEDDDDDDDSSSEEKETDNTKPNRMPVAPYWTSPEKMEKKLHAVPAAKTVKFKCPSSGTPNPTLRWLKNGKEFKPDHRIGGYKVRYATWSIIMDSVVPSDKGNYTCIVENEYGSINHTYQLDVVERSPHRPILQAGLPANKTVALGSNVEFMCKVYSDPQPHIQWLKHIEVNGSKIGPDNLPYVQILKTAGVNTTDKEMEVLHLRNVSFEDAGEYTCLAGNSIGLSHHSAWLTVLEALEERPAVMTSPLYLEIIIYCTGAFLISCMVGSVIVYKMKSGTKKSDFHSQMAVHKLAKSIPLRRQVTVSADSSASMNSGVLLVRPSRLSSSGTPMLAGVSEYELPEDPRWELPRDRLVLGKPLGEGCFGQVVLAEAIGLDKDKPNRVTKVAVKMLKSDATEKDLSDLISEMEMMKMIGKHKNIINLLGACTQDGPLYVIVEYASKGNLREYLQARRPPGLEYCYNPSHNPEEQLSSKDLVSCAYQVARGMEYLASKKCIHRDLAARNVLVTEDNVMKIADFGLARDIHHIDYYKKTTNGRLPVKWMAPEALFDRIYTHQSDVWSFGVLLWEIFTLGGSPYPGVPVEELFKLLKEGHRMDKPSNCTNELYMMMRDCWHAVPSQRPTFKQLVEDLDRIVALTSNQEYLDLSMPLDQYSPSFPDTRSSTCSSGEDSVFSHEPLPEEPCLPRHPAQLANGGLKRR

Sequence | phosphorylation enrichment
PGQRVYVVAES [SHH_Y316_R321S] | 0.494
PVDVAYRHGFF [PLEC_Y2967_R2969H_YF] | 0.574
IGEGTYRTVFK [CDK5_Y15_G16R] | 0.353
RNVFFYSFLLK [PTEN_Y178_Y174N_YF] | 0.586
SLQFEYVHFGG [CDC14A_Y591_S589F_YF] | 1.47
ILIFHYAKGQP [MPZ_Y82_S78L] | 0.612
HISGVYKLPPD [ANGPTL7_Y145_R140H] | 0.585
KGRAGYTTVAV [RET_Y752] | 0.309
ATARPYRPYII [LRP5_Y1528] | 0.396
PSGPAYRGAVP [ASAH1_Y43_T42A] | 0.809
ARGMEYLASKK [FGFR1_Y613] | 0.285
RKETFYILSCR [GUCY2C_Y681_T682I] | 0.553
RLRKYHLGKYL [KLB_Y906_Y906H] | 0.29
FLTQHYDAEPQ [ANG_Y38_K41E] | 0.583
TEQDPYNNIVH [MMUT_Y364_R369H] | 0.501
YSGDCYRIQGR [DDR2_Y741_Y740C] | 0.483
LKEIRYPPFTD [ALDH3B2_Y362_H361R_YF] | 1.09

Sequence | phosphorylation enrichment
DQIDTYELSGG [DNM1_Y354] | 0.54
NHFKIYNLCAE [PTEN_Y68_YF] | 0.676
WQQQSYLDYGI [CTNNB1_Y30_S33Y] | 0.91
GLSAPYVKIHL [SYT2_Y309_D307A] | 0.436
KIVQDYLEKFY [MMP8_Y36_T32I] | 0.521
GVRLFYRVRES [RB1_Y454_M457R_YF] | 0.513
KVGRVYLFLQP [ITGA2B_Y360_E355K] | 0.404
NRVEIYEKTVE [CYFIP1_Y108] | 0.523
VPLLEYFRDIF [CDAN1_Y712_YF] | 0.687
DDHFTYSRYPW [LY75_Y888] | 0.576
LVSCTYQLARG [FGFR2_Y608] | 0.452
IHFAIYLLKFS [ARMC9_Y107_YF] | 0.363
PPSLSYLSFEG [EXOSC3_Y143_A139P] | 0.595
LNARHYGGLTG [PGAM2_Y92_E89A] | 0.567
KVNKIYHPDFI [LIG3_Y767_Y768H] | 0.398
QSPQLYKQMCI [DARS1_Y253] | 0.461
